These results are taken from US9657279B2, “Biological systems for production of commercially valuable compounds” (priority 2007, dated 2017).

One data set concerns S. cerevisiae W303a. The data set is described as follows: Methyl iodide toxicity assay in yeast. As to conditions: W303a lab strain, OD600 at 24 hours of growth, commercially available CH3I added. The data set is classed as cell-based. The source says:
(§1) FIG. 11A-D: Methyl iodide production in recombinant S. cerevisiae. FIG. 11A. CH3I production pathway. The B. maritima MHT is expressed with a N-terminal vacuole targeting tag. The […] MHT methylates iodide ions using SAM as a methyl donor. FIG. 11B, CH3I measured in culture headspace over time. Activity on glucose-grown cells is shown. FIG. 11C, CH3I yields in grams per liter of culture per day. Values for the culturable red algae E. muricata are taken from the literature. Yields from B. maritima MHT-expressing E. coli and S. cerevisiae are calculated by comparison to standard curves. FIG. 11D, CH3I toxicity in yeast. Exponential phase cultures were diluted to an OD600 of 0.05 and commercially available CH3I was added. OD600 was measured at 24 hours of growth. The W303a lab strain is shown in filled boxes, the DNA methylation-sensitive RAD50Δ mutant is shown in open boxes.
(§2) Individual colonies were inoculated in YP media with 2% glucose and grown overnight. Cultures were diluted to an OD600 of 0.05 and methyl iodide was added to the specified amount. […] OD600 was measured by spectrometry with YP media used as a blank. Each data point was performed in triplicate. The RAD50Δ mutant was obtained from the Saccharomyces Genome Deletion Project (Invitrogen).

The subject of the next data set is RAD50Δ mutant. It counts as cell-based, S. cerevisiae. As to conditions: RAD50Δ mutant compared with W303a, OD600 at 24 hours.
Text: as §1, §2

The test system of data set [1] is E. coli.
Procedure: Methyl halide production can be measured by gas chromatography. In the experiments described below an Agilent gas chromatography/mass spectrometry (GC/MS) system was used. Most often the “AIR.U” tune file, uses an ionization voltage of 1341. In some experiments an ionization voltage of about 1250 was used. A solvent delay of 0 was set and the scan parameters set to 15-100 MW. The injection port and column were preset to 50° C. The sample to be tested was mixed by shaking for a few seconds. 100 μL of the headspace gas was extracted with a gas-tight syringe. The sample gas was manually injected into the GCMS injection port. The GCMS program was started with the following settings: 1:00 at 50° C.; a ramp of 10° C. per min to 70° C. (the sample typically came off at ˜52° C.); 1:00 at 70° C. The column was then cleaned (ramp to 240° C. for 2 minutes). The sample peak was identified by extracting the GC peak corresponding to 50MW (−0.3, +0.7). This peak was integrated to produce the “GC 50MW” data.
For each strain a single colony was picked and grown overnight (10-14 hrs) in 20 mL of LB miller in a 30 mL glass test tube with aeration (a loose cap) at 37 C and 250 rpm shaking. The culture was spun down in a swinging bucket centrifuge for 5 min @3000×g. […]
The test system of the next data set is S. cerevisiae W303. As to the kind of experiment: Methyl iodide production by vacuole-targeted MHT in yeast. The data set is classed as cell-based. As to conditions: N-terminal carboxypeptidase Y tag versus cytosolic enzyme, vector pCM190. The source says: In one approach, for illustration and not limitation, the coding sequence of B. maritima methylchloride transferase (MCT) is synthesized and cloned into a high copy vector under the control of a tet-repressible CYC promoter (plasmid pCM190, Gari et al, 1997, Yeast 13:837-48.). The MCT coding sequence is fused to a N-terminal peptide domain from carboxypeptidase Y known to target pendant proteins to the yeast vacuole (amino acid sequence: […] (SEQ ID NO:1), Valls et al., 1990, J Cell Biol. 111:361-8.) This expression system is transformed into S. cerevisiae strain W303a. […] Cultures are grown at 30 degrees with 250 rpm shaking, and methyl iodide production assayed at specified intervals via GC-MS. […] Oven temperature is programmed from 50 degrees (1 min) to 60 degrees (10 degrees/min).
We fused a 16 amino acid vacuolar targeting tag ([…]) from yeast carboxypeptidase Y to the N-terminus of the B. maritima MCT and expressed the enzyme from the vector pCM190. […] We next expressed the cytosolic and vacuolar targeted enzymes in a VPS33A background, which is unable to form functional vacuoles.

Data set [2] concerns E. coli. To be noted: library of 89 genes, 100 mM sodium halide salt, headspace GC-MS.
Procedure: Methyl halide production was sampled by analyzing the headspace gas using GC-MS (Supplementary Information).
Bacteria carrying MHT expression vectors were inoculated from freshly streaked plates and grown overnight. Cells were diluted 100-fold into media containing 1 mM IPTG and 100 mM appropriate sodium halide salt. Culture tubes were sealed with a rubber stopper and grown at 37 degrees for 3 hours. Yeast carrying MHT expression vectors were streaked on uracil dropout plates from freezer stocks (15% glycerol) and grown for 48 hours. Individual colonies were inoculated into 2 mL of synthetic complete uracil dropout media and grown overnight at 30 degrees. Cultures were next inoculated into 100 mL fresh synthetic complete uracil dropout media and grown for 24 hours. […] 10 mL of this concentrated culture was aliquoted into 14 mL culture tubes and sealed with a rubber stopper. Cultures were grown at 30 degrees with 250 rpm shaking.

Regarding `CI` [methyl iodide], in the data set with S. cerevisiae W303a, the “level up to which yeast were resistant to deleterious methylating effects of methyl iodide” value is over 5 g/L. Besides, the “sensitivity to methyl iodide” value in the data set on RAD50Δ mutant is listed as “increased sensitivity”.

B1: B. maritima: methyl halide transferase from Batis maritima, SEQ ID NO: 3 (protein, listed as Batis maritima)
chain: MSTVANIAPVFTGDCKTIPTPEECATFLYKVVNSGGWEKCWVEEVIPWDLGVPTPLVLHLVKNNALPNGKGLVPGCGGGYDVVAMANPERFMVGLDISENALKKARETFSTMPNSSCFSFVKEDVFTWRPEQPFDFIFDYVFFCAIDPKMRPAWGKAMYELLKPDGELITLMYPITNHEGGPPFSVSESEYEKVLVPLGFKQLSLEDYSDLAVEPRKGKEKLARWKKMNN
Consider B1, for which, in the data set with E. coli [1] (165 mM NaBr, 100 uM IPTG, 1.5 hours, headspace GC/MS), the methyl bromide production result was “best”. For the same molecule, the “specificity of methyl halide production” value in the data set with E. coli [1] (methyl bromide versus methyl iodide) is “significant specificity for methyl bromide production”. Moreover, the “increase in methyl iodide production rate by targeting to the vacuole” value in the data set with S. cerevisiae W303 turned out to be 50%. For the same molecule, the “methyl halide activity on chloride, bromide and iodide” value with E. coli [2] is “highest activity of all genes on each ion”.
